Laboratory results as given in the supplement of paper PMC9170038.

System: MS2 coat protein
Test: apparent KD of MS2 coat protein; higher = weaker reporter binding
Settings: Eterna round: R107
Outline: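 Illumina sequencing clusters served as templates for on-chip transcription of the designed RNA switches. SNAP-549-labelled MS2 coat protein was then titrated in twofold steps from 0.7 or 1.5 nM to 3 µM, allowing 0.8–1.5 h per step at first and 10–20 min per step later. The buffer held 100 mM Tris-HCl pH 7.5, 80 mM KCl and 4 mM MgCl2, without or with constant ligand. Apparent KD is the median per design of normalised cluster binding-curve fits.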

[1] = input ligand: theophylline 20 uM
[2] = input ligand: theophylline 2 mM
[3] = input ligand: tryptophan 2.4 mM

Sequence	apparent KD of MS2 coat protein (input ligand: arginine 13.2 mM)	apparent KD of MS2 coat protein (input ligand: none)	apparent KD of MS2 coat protein [1]	apparent KD of MS2 coat protein [2]	apparent KD of MS2 coat protein [3]
UGACAUUGCUCAGAUACCAGACUUGAGGAUCACCCAAGUGCCAACAAGUAUAUAAUAAAAGUCCCUUGGCAGCUGAGCAAUGUCU [TheoBX 18#MS2Left #AlternativeMS2 #Theo2]	42.7 nM	28 nM	28.6 nM	137 nM	17.5 nM
UGACAUUGCUGCGAUACCAGACAUGAGGAUCACCCAUGUACCAAGGUAAAGAAAUAACGUGUCCCUUGGCAGCGCAGCAAUGUCU [MAT - Exclusion Theophlline B - Mod of Eli - D8]	11.5 nM	–	13.9 nM	–	10.1 nM
UGACCCUUCACGGCCGCCACUCAUUUUAAGUAGAGAGAGUACAUGAGGAUCACCCAUGUGAGAGAGAGGACCGGGUGAGAUGUUG [ss-trypB-0(N)]	15.5 nM	16.3 nM	30.8 nM	16.8 nM	15.4 nM
UGAGUUAGACAAAAGUCUAGCUCUGGUGAAGGAGCGUCCGAAAGGACAGGUAGGUCGCACCACAUGAGGAUCACCCAUGUUCCUU [ArgAS 10 #OpenEnded]	112 nM	227 nM	192 nM	323 nM	216 nM
UGAGUUAGACAAAAGUCUAGCUCUGGUGAAGGAGCGUCCGAAAGGACAGGUAGGUCGCACCACCUGAGGAUCACCCAGGUUCCUA [ArgAS 14 #OpenEnded #AlternativeMS2]	28.5 nM	42.1 nM	29.8 nM	57.2 nM	38.9 nM
UGAUAUAUGCGAAGGAGCGGGAAAUAUAUAUAUAUAAUCCUAACAUGAGGAUCACCCAUGUCCCAGGUAGGUCGCGCAUAUAUUG [12.D]	58.7 nM	64.8 nM	78.5 nM	77.1 nM	59.7 nM
UGAUCCUACAGAGAUACCAGUGCCACUAAAUAACUAAACACAUGAGGAUCACCCAUGUAACACCCUUGGCAGCUCAACUAAAGGG [Same State Theophylline B GF16]	19.7 nM	–	25.5 nM	–	26.8 nM
UGAUCCUACAGAGAUACCAGUGCCACUGAGUGACCAGACACAUGAGGAUCACCCAUGUAACACCCUUGGCAGCUCAACUAAAGGG [Same State Theophylline B GF17]	16.2 nM	–	20.5 nM	–	21.4 nM
UGAUCCUACAGAGAUACCAGUGCCGCUAGAUAACUAUGCACAUGAGGAUCACCCAUGUAACACCCUUGGCAGCUCAACUAAAGGG [Same State Theophylline B GF20]	42.5 nM	–	127 nM	–	79.7 nM
UGAUGGUGCUGAAGGAGCGUGUAAGAACAAGAACAUGAGGAUCACCCAUGUAUUAAUUUAACACAGGUAGGUCGCGGUGUUAUUG [11.L]	30.5 nM	25.4 nM	42.5 nM	45.8 nM	19.7 nM
UGCCGAGACGUGGAUUACCCGUGUACCGAAGGAGCGCCCGAAAGGGCAGGUAGGUCGCGGAGGACAUGAGGAUCACCCAUGUCGA	37.3 nM	52.1 nM	93.5 nM	65 nM	83.7 nM
UGCCUAGACGUGGAUUACCCGUGUACCGAAGGAGCGCCCGAAAGGGCAGGUAGGUCGCGGAGGACAUGAGGAUCACCCAUGUUUA	31.9 nM	201 nM	151 nM	431 nM	175 nM
UGCGAUGAACCUGAUACCAGAUGUAUUUGCUCCUCGGACAACAUGAGGAUCACCCAUGUCAUCCCUUGGCAGCAGGAGCGAAAGC [theeternabot_exclusion_MS2_Theo_B_21]	12.8 nM	–	14.3 nM	–	11.4 nM
UGGCGAGAAGGAAGGAGCGUCAGCUGAGUCACAUGAGGAUCACCCAUGUAGCACAUAGUGUGACAGGUAGGUCGCCUUCUGCCCU [SS-ArgB17]	13.5 nM	10.3 nM	15.4 nM	10.8 nM	9.41 nM
UGGUACAUGAGGAUCACCCAUGUGCCGGAUACCAGAGAGCCGGCUCUCCCUUGGCAGCUGGCGCGACAUGAGGAUCACCCAUGUG [Exclusion Theophylline A GF18]	18.1 nM	–	32.2 nM	–	24.6 nM
UGGUACAUGGCGGCCGCCACUGGGUUGAAUACCUGAGGAUCACCCUGGUAAAACGCGAAAGCGACUAGGACCGGGUCAUGUACCU	98.8 nM	148 nM	162 nM	385 nM	44.5 nM
UGGUACUAGGCGGCCGCCACUGGGUGAUACAUGAGGAUCACCCAUGUUUAAUGCCGAGAGGCAACCAGGACCGGGCCUAGUACAU	139 nM	327 nM	366 nM	473 nM	19.5 nM
UGGUCCGGCGGAAGGAGCGACAUGAGGAUCACCCAUGUCUCCCGUUAUGGGAGUUCUUUAGGUCAGGUAGGUCGCCGGCGGGUCA [#1 Exclusion - Arginine B Attempt #11 (Inspired by Omei)]	196 nM	51.6 nM	80.6 nM	221 nM	62.9 nM
UGGUGCCCUGUAUACAUUGUAAUCCUAAUGCGAGGACCGGUACGGCCGCCACUCGUUGCGGAACAUGAGGAUCACCCAUGUAACA [theeternabot_exclusion_MS2_Trp_A_21]	17 nM	–	26.2 nM	32 nM	–

Sequence	apparent KD of MS2 coat protein (input ligand: arginine 13.2 mM)	apparent KD of MS2 coat protein (input ligand: none)	apparent KD of MS2 coat protein [1]	apparent KD of MS2 coat protein [2]	apparent KD of MS2 coat protein [3]
UGGUGUAGGGUAAAUAGGCUGAGUACAGAAGGAGCGCGAAUAAACGCAGGUAGGUCGCUGGACUCCACAUGAGGAUCACCCAUGU [Same State Arginine A GF 28]	35.5 nM	28.4 nM	34.1 nM	23.3 nM	36.4 nM
UGGUUUGUGAUGGAUACCAGCAGAGAAAACGUUUAUCCUAACAUGAGGAUCACCCAUGUAUGCCCUUGGCAGCUGUUGUGGGCUG [8.T]	31.9 nM	–	49.5 nM	–	30.4 nM
UGUAACAUGAGGAUCACCCAUGUAAGUGAUACCAGAUAAGUAGUAGUCCCUUGGCAGCAUAUUGGGAAAGUGUAUAGUCUAUACG [Same State - Theophylline A (Freestyle 5)]	50 nM	–	75.3 nM	–	46.4 nM
UGUAACAUGAGGAUCACCCAUGUAAGUGAUACCAGAUAAGUAGUAGUCCCUUGGCAGCAUAUUGGGAAAGUGUAUAGUCUAUAUU [Same State - Theophylline A (Freestyle 3)]	43.6 nM	–	74.9 nM	–	51.1 nM
UGUAACAUGAGGAUCACCCAUGUAAGUGAUACCAGAUAAGUAGUAGUCCCUUGGCAGCAUAUUGGGAAAGUGUAUAGUGUAUAUG [Same State - Theophylline A (Freestyle 4)]	48.9 nM	–	72.3 nM	–	58.4 nM
UGUAACAUGAGGAUCACCCAUGUGAGUGAUACCAGACUAGUGUUAGUCCCUUGGCAGCACGCUGGACAAAUGUGUAGUCUAUGCG [Same State - Theophylline A (Freestyle 20)]	40.2 nM	72.7 nM	112 nM	62.6 nM	70.5 nM
UGUACCAUGUCGGCCGCCACUCAUGAUAAACAUGAGGAUCACCCAUGUGGCGUCAAAGACGCUAUGAGGACCGGGACAUGGUACU [TryBS Zipper 3 #StaticStem #Zipper]	15.3 nM	–	19.9 nM	15.7 nM	–
UGUAUGGACUGAAGGAGCGGGUAAUAAAUCUGAGGAUCACCCAGGUAAUAGGCGAAAGCCACCCAGGUAGGUCGCAGUCCAUACU	17.7 nM	19 nM	25.1 nM	19.3 nM	19.4 nM
UGUAUGUGAAGUGAUACCAGUCCAUAAACUGGAACAUGAGGAUCACCCAUGUAAUGGGUGGACCCUUGGCAGCACUUCUCAUACU [First try]	48 nM	–	468 nM	–	190 nM
UGUAUGUGAUCUGAUACCAGAGUUGAUAACCUGAGGAUCACCCUGGUAAAGGCGAAAGCCCUCCCUUGGCAGCAGAUCGCAUACU	121 nM	216 nM	207 nM	34.6 nM	239 nM
UGUAUGUGAUCUGAUACCAGCGUUGAUAACCUGAGGAUCACCCUGGUAAGGCGAAAGCCGCGCCCUUGGCAGCAGAUCGCAUACU	169 nM	237 nM	83.9 nM	23.3 nM	260 nM
UGUAUGUGAUCUGAUACCAGCUAAUAAAGCUUGAGGAUCACCCAAGUGGAGCGGAAACGCAGCCCUUGGCAGCAGAUCGCAUACU [Denovo 8 #StaticStem #AlternativeMS2]	189 nM	169 nM	103 nM	9.93 nM	224 nM
UGUAUGUGAUCUGAUACCAGCUAGCGGAAACGCAGCUUGAGGAUCACCCAAGUGGAAAUAAGCCCUUGGCAGCAGAUCGCAUACU [Denovo 6 #StaticStem #AlternativeMS2]	99.7 nM	246 nM	139 nM	11.9 nM	309 nM
UGUAUGUGAUCUGAUACCAGCUUAAUAGCUUGAGGAUCACCCAAGUGGAGCGGAAACGCUAGCCCUUGGCAGCAGAUCGCAUACU [Denovo 10 #StaticStem #AlternativeMS2]	104 nM	198 nM	104 nM	11.9 nM	198 nM
UGUAUGUGAUCUGAUACCAGUCCAACUGGUAAAACAAGAGGAUCACCCUUGUAAAAUUGGGACCCUUGGCAGCAGAUCGCAUACU	251 nM	472 nM	409 nM	29.8 nM	733 nM
UGUAUGUGAUCUGAUACCAGUCCAACUGGUAAAACCUGAGGAUCACCCAGGUAAAAUUGGGACCCUUGGCAGCAGAUCGCAUACU	134 nM	183 nM	130 nM	16.1 nM	177 nM
UGUAUGUGAUUUGAUACCAGACCAGCUGGUGGUACCUGAGGAUCACCCAGGUAGGUUUGGGUCCCUUGGCAGCAAAUCGCAUACU [SS Theo B #24 Ms6]	22 nM	20.6 nM	23.8 nM	11.4 nM	21.2 nM
UGUAUGUGAUUUGAUACCAGACCAGCUGGUGGUACCUGAGGAUCACCCGGGUAGGUUUGGGUCCCUUGGCAGCAAAUCGCAUACU [SS Theo B #24 Ms8]	48.6 nM	48.6 nM	52.1 nM	31.5 nM	48.6 nM
